The results in this text go back to a protein production outcome set (Wang et al. 2014).

A short description of this data set: label from the status in PepcDB records.

On to “MERVGTPEEERQAGPVLPTSLESDSSKRTSWGFLITGVVGGALLTVYAVATPFITPALRKVCLPFVPATSKQVENVVRMLRHRRGPLVDIGSGDGRIVIAAAKEGFPAVGYELNPWLVWYSRYRAWRAGVHGSAKFYISDLWKVTFAQYSNVVIFGVPQMMPQLEKKLELELEDGARVIACRFPFPRWTPDHTTGEGIDTVWAYDMSAQRGRGGRPNQEWVGQKNLSETAGLQASSSETRSKLLDVE”, for which the protein production result is “failed”.
Next, “MESDSEMVPFPQLPMPIENNYRACTIPYRFPSDDPKKATPNEISWINVFANSIPSFKKRAESDITVPDAPARAEKFAERYAGILEDLKKDPESHGGPPDGILLCRLREQVLRELGFRDIFKKVKDEENAKAISLFPQVVSLSDAIEDDGKRLENLVRGIFAGNIFDLAVKTWFHDHGSLMTWKTSKPNGSISLGRRSLICFALPFNASFRLQCLFSELKYTLNCSSSSSFPFKVVLAANELPSINDITCTELTEILSQLKDENGQLLGVDTSKLLIANSGNDLPVIDLSRVSQELAYLSSDADLVIVEGMGRGIETNLYAQFKCDSLKIGMVKHLEVAEFLGGRLYDCVFKFNEVQS”: “not failed”; “MESIWRIATGQDPSREDYEGIEFWSNPERSGWLTKQGDYIKTWRRRWFVLKRGKLLWFKDQAAAGIRGSTPRGVISVGDCLTVKGAEDVVNKPFAFELSSGSYTMFFIADNEKEKEEWINSIGRSIVQHSRSVTDSEVLDYDHRR”: “failed”; “MESKTNYTIVGLIVLILTAGLLSAGLWLSVGFNQKEYTSYTVYLKESVSGLSVESPVKFNGVQVGYVKEIKLNKNDPRQVELLLNIEKSTPITTSTSATLITQGITGVTYVGLSAGSSELTPLRKMPGEPYPVIPSKPSLLNQLDAVLKEVAENVGAVSEKAQLIFNEENADNVRKSLANLERITEIIADKGQTIDSSLNNLDVFVANMANASKQFPQLIKDLKTGISKFKSLADNMSAAGKDVSKTMIAGKNTIDQISQQAIPPAVILLRRLNAISANLEKVSNEMRQNPSVIIRGTKAPKLGPGELEHHHHHH”: “failed”.
Turning to “MESLDSVSIAILLGSVLVMAGILSSLLALRFGAPLLLVFLVIGILAGESGPGGINFNDLGTTYLVGSVALALILFDGGLKTRFSSIKAVLAPSMGLATVGVLLTALVTAPVARYALDLSWVEALLASAVVASTDAAAVFLLVHAQGLRLRPRVGATLEVESGTNDPFAVFLTLMLVELITRGESSILHVLIEFVREAALGAVIGVVGGRVVVMALNRVALPQGLHAPFVTTAALVVFGAAQMSHASGFLAVYLAGMIIGNQPTRAHNSVVAFLDAATWLAQIVMFVLLGLLVSPQRLMGSIGPAVVIALALMLVARPLAVFICLAPFRFNWRERLFIAWVGLRGAVAIFLASIPMLVGLSKAYLYFDVAFVVVLISLMLQGWTLAPAARKLLVALPRSDRGPRRIELDLPGQLEQQLVGYAVRPKSLYLKRGLIPSWSKPTLVIRDQRILTPEEAEPVAPGDYVYLLAPPEKAAALDRFFVDMPPSTAPDPHLLGDFIVPGETSLGDLAAAYGISVPPGQEALTLADYFDIYLDQAPMVGATLPLDSIVLVARSLGGGRVNVVGLRLPEEEDEAPPPTRLAKVRTKLSEVWSLLAGV”, the protein production result is “failed”.
Next, “MESMSMNHRVVRHCHNKKLQQSRYSPYSKENIISTIEKEMQKDEAIRLGVELSLFVAETMVLLSDNLRSMLLFCLWVLTNAECTYFTDPVVGRLHCVMLYVLETYIKPKNGVYLADVKSNQWEVFVKSCKSFVFGIRELDRIVLILGKRESSSCEVVKTSDFEHCNQELKKLEETLRSAKDVSEANGFAREVIKSNILCLWKSLFETSQPKVINLKNRTLDMFKPLLNQAREITCSSLIASLHI”: “failed”.
